Test results as given in US20200291066A1.
Read-outs that look alike come from different tables or passages of the source. Ends that are not written are not given here.

What was measured:
[1] = target: T1, human IL-2Rβ (CD122 protein, Fc Tag) (27-239) (human), P14784; experiment: pH-dependent ELISA (Examples 9-12)
T1 chain: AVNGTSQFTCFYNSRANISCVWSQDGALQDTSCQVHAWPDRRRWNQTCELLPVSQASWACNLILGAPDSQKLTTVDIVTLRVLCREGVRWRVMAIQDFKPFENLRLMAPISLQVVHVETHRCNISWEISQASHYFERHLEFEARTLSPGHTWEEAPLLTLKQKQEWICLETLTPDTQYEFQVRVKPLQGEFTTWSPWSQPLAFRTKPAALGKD

[2] = target: T1, human IL-2Rβ (CD122 protein, Fc Tag) …; experiment: pH-dependent ELISA (Examples 9-12)

decrease in binding at pH 7.5 compared to pH 6.0 [1]: > 15% | decrease in binding at pH 7.5 compared to pH 6.0 [2]: > 50%
B1: SEQ ID NO 489 (peptide)
peptide: PGVQDCXIAHXGELCEFVWN
modifications: not fully specified; X: residue not identified in the source; ends and bridges not checked
